Data from US20140113288.

Sequence of syncytin-1-HA, Q9UQF0 (Q9UQF0 21-538): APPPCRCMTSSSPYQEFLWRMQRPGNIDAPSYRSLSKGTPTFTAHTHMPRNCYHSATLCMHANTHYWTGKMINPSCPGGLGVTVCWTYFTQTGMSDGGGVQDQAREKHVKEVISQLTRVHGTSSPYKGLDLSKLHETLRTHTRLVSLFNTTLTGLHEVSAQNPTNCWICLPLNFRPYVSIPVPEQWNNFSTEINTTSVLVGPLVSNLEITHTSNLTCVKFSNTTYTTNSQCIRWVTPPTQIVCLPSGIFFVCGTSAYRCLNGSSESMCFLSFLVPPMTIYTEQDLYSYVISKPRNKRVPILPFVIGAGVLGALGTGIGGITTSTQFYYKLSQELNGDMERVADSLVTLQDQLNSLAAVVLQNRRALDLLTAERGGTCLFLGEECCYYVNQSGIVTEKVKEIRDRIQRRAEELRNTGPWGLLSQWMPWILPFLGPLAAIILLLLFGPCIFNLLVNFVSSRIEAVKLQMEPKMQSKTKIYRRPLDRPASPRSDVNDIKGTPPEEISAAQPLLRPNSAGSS

| Protein | protein level of surface syncytin-1-HA TM subunit (biotinylation, streptavidin pull-down, HA mAb) (syncytin-1-HA, Q9UQF0) | cleavage of fibronectin (immunoblotting with anti-fibronectin Ab) (fibronectin) |
| --- | --- | --- |
| HtrA4-FLAG (protein) EKLHTQPSCPAVCQPTRCPALPTCALGTTPVFDLCRCCRVCPAAEREVCGGAQGQPCAPGLQCLQPLRPGFPSTCGCPTLGGAVCGSDRRTYPSMCALRAENRAARRLGKVPAVPVQWGNCGDTGTRSAGPLRRNYNFIAAVVEKVAPSVVHVQLWGRLLHGSRLVPVYSGSGFIVSEDGLIITNAHVVRNQQWIEVVLQNGARYEAVVKDIDLKLDLAVIKIESNAELPVLMLGRSSDLRAGEFVVALGSPFSLQNTATAGIVSTKQRGGKELGMKDSDMDYVQIDATINYGNSGGPLVNLDGDVIGVNSLRVTDGISFAIPSDRVRQFLAEYHEHQMKGKAFSNKKYLGLQMLSLTVPLSEELKMHYPDFPDVSSGVYVCKVVEGTAAQSSGLRDHDVIVNINGKPITTTTDVVKALDSDSLSMAVLRGKDNLLLTVIPETIN | the protein level of the TM subunit of syncytin-1-HA decreased in the presence of HtrA4-FLAG, but not HtrA4mt-FLAG | cleavage of fibronectin by HtrA4-FLAG, but not HtrA4mt-FLAG, was observed in a dose-dependent manner |
| HtrA4mt-FLAG (protein) EKLHTQPSCPAVCQPTRCPALPTCALGTTPVFDLCRCCRVCPAAEREVCGGAQGQPCAPGLQCLQPLRPGFPSTCGCPTLGGAVCGSDRRTYPSMCALRAENRAARRLGKVPAVPVQWGNCGDTGTRSAGPLRRNYNFIAAVVEKVAPSVVHVQLWGRLLHGSRLVPVYSGSGFIVSEDGLIITNAHVVRNQQWIEVVLQNGARYEAVVKDIDLKLDLAVIKIESNAELPVLMLGRSSDLRAGEFVVALGSPFSLQNTATAGIVSTKQRGGKELGMKDSDMDYVQIDATINYGNAGGPLVNLDGDVIGVNSLRVTDGISFAIPSDRVRQFLAEYHEHQMKGKAFSNKKYLGLQMLSLTVPLSEELKMHYPDFPDVSSGVYVCKVVEGTAAQSSGLRDHDVIVNINGKPITTTTDVVKALDSDSLSMAVLRGKDNLLLTVIPETIN | the protein level of the TM subunit of syncytin-1-HA decreased in the presence of HtrA4-FLAG, but not HtrA4mt-FLAG | cleavage of fibronectin by HtrA4-FLAG, but not HtrA4mt-FLAG, was observed in a dose-dependent manner |
